Results taken from patent US7553821B2, “Methods for selectively modulating survivin apoptosis pathways” (Yale University, priority 2000, dated 2009).

Target: T1, caspase-8 (Homo sapiens, UniProt Q14790)
T1 construct: endogenous in cells; host or cells: HeLa
Assay: Co-immunoprecipitation of survivin and caspase-8 from HeLa cells
Type: binding
Settings: transfected HeLa cells
Experimental: The experimental conditions are the same as in A, except that HA-survivin and HA-survivin(T34A) immunoprecipitates were separately immunoblotted with antibodies to caspase-8 or HA. S, supernatant of HA-survivin immunoprecipitate. Arrow, position of ˜55 kDa proform caspase-8.
Transfection experiments. For transient transfection, HeLa cells in C-6 tissue culture plates (Costar, Cambridge, Mass.) at ˜60-70% confluency, were incubated in 1 ml of serum-free OptiMEM medium (Life Technologies, Gaithersburg, Md.) for 20 min, and transfected with 2.5 μg of the various plasmid cDNAs plus 9 μl Lipofectamine (Life Technologies). After a 5 h incubation at 37° C., the mixture was aspirated and substituted with complete growth medium for 48-72 h. To generate stable YUSAC-2 transfectants, a survivin(T34A) cDNA was inserted into the HindIII-SpeI sites of the pTet-splice vector (Dr. D. Schatz, Yale University School of Medicine), downstream of the regulatory sequences of the Tet-resistance operon (TetO). YUSAC-2 cells were transfected with 0.8 μg pTet-T34A, 0.8 μg of the transactivation/selection plasmid ptTA-Neo and 5 μl Lipofectamine in 1 ml of OptiMem. […] Gated GFP-expressing cells were analyzed for DNA content by flow cytometry on a FACSort (Becton Dickinson, San Jose, Calif.) using a Cell Quest software. […]

T1 sequence (Q14790 whole entry): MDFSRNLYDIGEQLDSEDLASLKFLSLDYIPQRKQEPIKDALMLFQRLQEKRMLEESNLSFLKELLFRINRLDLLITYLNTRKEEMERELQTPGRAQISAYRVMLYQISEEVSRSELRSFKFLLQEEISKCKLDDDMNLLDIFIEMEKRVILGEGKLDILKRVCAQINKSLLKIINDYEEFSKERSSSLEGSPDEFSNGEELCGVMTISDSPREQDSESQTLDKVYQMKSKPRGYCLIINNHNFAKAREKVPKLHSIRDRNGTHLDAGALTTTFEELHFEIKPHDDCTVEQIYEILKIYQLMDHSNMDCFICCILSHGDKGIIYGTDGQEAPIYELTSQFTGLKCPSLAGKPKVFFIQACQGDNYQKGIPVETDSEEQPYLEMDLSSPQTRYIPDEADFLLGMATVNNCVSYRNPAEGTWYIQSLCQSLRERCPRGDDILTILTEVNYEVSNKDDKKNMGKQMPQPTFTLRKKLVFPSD

With “survivin(T34A): dominant-negative, non-phosphorylatable survivin mutant with Thr34→Ala substitution, expressed from transfected cDNA (also HA- or GFP-tagged)” the “caspase-8 in immunoprecipitates by Western blotting” value was “did not contain another upstream initiator caspase, caspase-8”.
